Laboratory results published in patent US20190352395A1 (REDWOOD BIOSCIENCE, published 2019).

T1: CD22-Fc (R&D Systems Cat. No. 1968SL) (human, UniProt P20273 20-687)
T1 construct: Bought reagent; also called CD22 antigen; huCD22-Fc; not shown: Fc part of the bought fusion
T1 sequence (looked up): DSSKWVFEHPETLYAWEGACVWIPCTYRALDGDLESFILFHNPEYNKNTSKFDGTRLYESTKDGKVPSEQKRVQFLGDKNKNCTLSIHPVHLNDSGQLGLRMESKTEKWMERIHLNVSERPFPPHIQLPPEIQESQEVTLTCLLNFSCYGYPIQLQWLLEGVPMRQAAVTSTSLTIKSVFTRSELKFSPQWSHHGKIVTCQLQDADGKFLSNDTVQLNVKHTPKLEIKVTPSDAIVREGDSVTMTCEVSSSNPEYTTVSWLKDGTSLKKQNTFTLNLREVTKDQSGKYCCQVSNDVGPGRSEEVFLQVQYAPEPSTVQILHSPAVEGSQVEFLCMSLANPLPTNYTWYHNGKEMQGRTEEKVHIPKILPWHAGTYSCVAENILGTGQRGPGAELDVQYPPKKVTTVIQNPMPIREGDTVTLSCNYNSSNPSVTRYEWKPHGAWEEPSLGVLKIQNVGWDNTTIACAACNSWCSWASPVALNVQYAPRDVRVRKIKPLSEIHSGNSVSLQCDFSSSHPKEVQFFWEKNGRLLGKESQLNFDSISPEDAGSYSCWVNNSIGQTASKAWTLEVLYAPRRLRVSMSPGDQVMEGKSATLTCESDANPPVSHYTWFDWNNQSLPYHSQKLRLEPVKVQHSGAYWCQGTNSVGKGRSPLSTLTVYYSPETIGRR


Target: T1, CD22-Fc (R&D Systems Cat. No. 1968SL)
Test: competition ELISA on coated CD22-Fc; competitor biotinylated chimeric RFB4
Procedure: 96 well MaxiSorp plates (Nunc) were coated with 1.0 μg/ml CD22-Fc (R&D Systems Cat. No. 1968SL) in Dulbecco's PBS (PAA Laboratories, Yeovil, UK) (60 μl final volume) at 4° C. overnight. Plates were blocked with Dulbecco's PBS-2% BSA for 1 hour at room temperature. Plates were washed 3 times with wash buffer (0.05% Tween20 in Dulbecco's-PBS). […] All samples were tested in duplicate. Plates were incubated for 1 h at room temperature and washed 3 times with wash buffer. 60 μl of a 1 in 1000 dilution of Streptavidin horse radish peroxidase (HRP) (Sigma-Aldrich) was added and incubated for 1 hour at room temperature. Plates were washed 3 times with wash buffer and 60 μl of 3,3′,5,5′-tetramethybenzidine (TMB) substrate (Invitrogen) was added and incubated at room temperature in the dark to allow the colour to develop. The reaction was stopped by adding 50 μl of 3M HCl. Plates were read at 450 nm using Dynex plate reader.

| Binder | IC50 relative to Chimeric RFB4 IgG1 |
| --- | --- |
| humanized RFB4 antibody VH6/VK2 (antibody, human IgG1, V domains shown) VH: EVQLVESGGGLVKPGGSLKLSCAASGFAFSIYDMSWVRQAPGKGLEWVAYISSGGGTTYYPDTVKGRFTISRDNAKNSLYLQMSSLRAEDTAMYYCARHSGYGSSYGVLFAYWGQGTLVTVSS VL: DIQMTQSPSSLSASVGDRVTITCRASQDISNYLNWYQQKPGKAVKLLIYYTSILHSGVPSRFSGSGSGTDYTLTISSLQPEDFATYFCQQGNTLPWTFGGGTKVEIK | 1 relative to Chimeric RFB4 IgG1 |
| humanized RFB4 antibody VH4/VK4 (antibody, human IgG1, V domains shown) VH: EVQLVESGGGLVKPGGSLRLSCAASGFAFSIYDMSWVRQAPGKGLEWVAYISSGGGTTYYPDTVKGRFTISRDNAKNSLYLQMSSLRAEDTAMYYCARHSGYGSSYGVLFAYWGQGTLVTVSS VL: DIQMTQSPSSVSASVGDRVTITCRASQDISNYLNWYQQKPGKAPKLLIYYTSILHSGVPSRFSGSGSGTDYTLTISSLQPEDFATYFCQQGNTLPWTFGGGTKVEIK | 1 relative to Chimeric RFB4 IgG1 |
| humanized RFB4 antibody VH6/VK4 (antibody, human IgG1, V domains shown) VH: EVQLVESGGGLVKPGGSLKLSCAASGFAFSIYDMSWVRQAPGKGLEWVAYISSGGGTTYYPDTVKGRFTISRDNAKNSLYLQMSSLRAEDTAMYYCARHSGYGSSYGVLFAYWGQGTLVTVSS VL: DIQMTQSPSSVSASVGDRVTITCRASQDISNYLNWYQQKPGKAPKLLIYYTSILHSGVPSRFSGSGSGTDYTLTISSLQPEDFATYFCQQGNTLPWTFGGGTKVEIK | 1 relative to Chimeric RFB4 IgG1 |
| humanized RFB4 antibody VH5/VK4 (antibody, human IgG1, V domains shown) VH: EVQLVESGGGLVKPGGSLKLSCAASGFAFSIYDMSWVRQAPGKGLEWVAYISSGGGTTYYPDTVKGRFTISRDNAKNSLYLQMNSLRAEDTAMYYCARHSGYGSSYGVLFAYWGQGTLVTVSS VL: DIQMTQSPSSVSASVGDRVTITCRASQDISNYLNWYQQKPGKAPKLLIYYTSILHSGVPSRFSGSGSGTDYTLTISSLQPEDFATYFCQQGNTLPWTFGGGTKVEIK | 1 relative to Chimeric RFB4 IgG1 |
| humanized RFB4 antibody VH3/VK1 (antibody, human IgG1, V domains shown) VH: EVQLVESGGGLVKPGGSLKLSCAASGFAFSIYDMSWVRQAPGKGLEWVAYISSGGGTTYYPDTVKGRFTISRDNAKNTLYLQMSSLRAEDTAMYYCARHSGYGSSYGVLFAYWGQGTLVTVSS VL: DIQMTQSPSSLSASVGDRVTITCRASQDISNYLNWYQQKPGKAVKLLIYYTSILHSGVPSRFSGSGSGTDYTLTISSLQQEDFATYFCQQGNTLPWTFGGGTKVEIK | 0.8 relative to Chimeric RFB4 IgG1 |
| humanized RFB4 antibody VH5/VK1 (antibody, human IgG1, V domains shown) VH: EVQLVESGGGLVKPGGSLKLSCAASGFAFSIYDMSWVRQAPGKGLEWVAYISSGGGTTYYPDTVKGRFTISRDNAKNSLYLQMNSLRAEDTAMYYCARHSGYGSSYGVLFAYWGQGTLVTVSS VL: DIQMTQSPSSLSASVGDRVTITCRASQDISNYLNWYQQKPGKAVKLLIYYTSILHSGVPSRFSGSGSGTDYTLTISSLQQEDFATYFCQQGNTLPWTFGGGTKVEIK | 0.9 relative to Chimeric RFB4 IgG1 |
| humanized RFB4 antibody VH6/VK1 (antibody, human IgG1, V domains shown) VH: EVQLVESGGGLVKPGGSLKLSCAASGFAFSIYDMSWVRQAPGKGLEWVAYISSGGGTTYYPDTVKGRFTISRDNAKNSLYLQMSSLRAEDTAMYYCARHSGYGSSYGVLFAYWGQGTLVTVSS VL: DIQMTQSPSSLSASVGDRVTITCRASQDISNYLNWYQQKPGKAVKLLIYYTSILHSGVPSRFSGSGSGTDYTLTISSLQQEDFATYFCQQGNTLPWTFGGGTKVEIK | 0.9 relative to Chimeric RFB4 IgG1 |
| humanized RFB4 antibody VH3/VK4 (antibody, human IgG1, V domains shown) VH: EVQLVESGGGLVKPGGSLKLSCAASGFAFSIYDMSWVRQAPGKGLEWVAYISSGGGTTYYPDTVKGRFTISRDNAKNTLYLQMSSLRAEDTAMYYCARHSGYGSSYGVLFAYWGQGTLVTVSS VL: DIQMTQSPSSVSASVGDRVTITCRASQDISNYLNWYQQKPGKAPKLLIYYTSILHSGVPSRFSGSGSGTDYTLTISSLQPEDFATYFCQQGNTLPWTFGGGTKVEIK | 1.1 relative to Chimeric RFB4 IgG1 |
| humanized RFB4 antibody VH4/VK2 (antibody, human IgG1, V domains shown) VH: EVQLVESGGGLVKPGGSLRLSCAASGFAFSIYDMSWVRQAPGKGLEWVAYISSGGGTTYYPDTVKGRFTISRDNAKNSLYLQMSSLRAEDTAMYYCARHSGYGSSYGVLFAYWGQGTLVTVSS VL: DIQMTQSPSSLSASVGDRVTITCRASQDISNYLNWYQQKPGKAVKLLIYYTSILHSGVPSRFSGSGSGTDYTLTISSLQPEDFATYFCQQGNTLPWTFGGGTKVEIK | 1.1 relative to Chimeric RFB4 IgG1 |
| humanized RFB4 antibody VH5/VK2 (antibody, human IgG1, V domains shown) VH: EVQLVESGGGLVKPGGSLKLSCAASGFAFSIYDMSWVRQAPGKGLEWVAYISSGGGTTYYPDTVKGRFTISRDNAKNSLYLQMNSLRAEDTAMYYCARHSGYGSSYGVLFAYWGQGTLVTVSS VL: DIQMTQSPSSLSASVGDRVTITCRASQDISNYLNWYQQKPGKAVKLLIYYTSILHSGVPSRFSGSGSGTDYTLTISSLQPEDFATYFCQQGNTLPWTFGGGTKVEIK | 1 relative to Chimeric RFB4 IgG1 |
| humanized RFB4 antibody VH3/VK2 (antibody, human IgG1, V domains shown) VH: EVQLVESGGGLVKPGGSLKLSCAASGFAFSIYDMSWVRQAPGKGLEWVAYISSGGGTTYYPDTVKGRFTISRDNAKNTLYLQMSSLRAEDTAMYYCARHSGYGSSYGVLFAYWGQGTLVTVSS VL: DIQMTQSPSSLSASVGDRVTITCRASQDISNYLNWYQQKPGKAVKLLIYYTSILHSGVPSRFSGSGSGTDYTLTISSLQPEDFATYFCQQGNTLPWTFGGGTKVEIK | 1 relative to Chimeric RFB4 IgG1 |
| humanized RFB4 antibody VH4/VK1 (antibody, human IgG1, V domains shown) VH: EVQLVESGGGLVKPGGSLRLSCAASGFAFSIYDMSWVRQAPGKGLEWVAYISSGGGTTYYPDTVKGRFTISRDNAKNSLYLQMSSLRAEDTAMYYCARHSGYGSSYGVLFAYWGQGTLVTVSS VL: DIQMTQSPSSLSASVGDRVTITCRASQDISNYLNWYQQKPGKAVKLLIYYTSILHSGVPSRFSGSGSGTDYTLTISSLQQEDFATYFCQQGNTLPWTFGGGTKVEIK | 0.9 relative to Chimeric RFB4 IgG1 |
